From the supplement of paper PMC12042874 come the findings set out here.

± gives the uncertainty stated by the source.

The data set can be described thus: amyloid nucleation score (Sup35N fusion, yeast selection) (log enrichment); library NNK1; higher = more nucleation; inactive = no reads after selection. Put shortly: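 Random libraries were run with three technical output replicates. In each, psi-negative yeast expressing Sup35N fused to peptides of 20 random codons were induced 24 hours with 100 μM copper sulfate and grown 7 days at 30°C on medium lacking adenine and uracil, and input and output plasmid inserts were Illumina-sequenced. The nucleation score is the DiMSum log enrichment of output over input reads, centred on the mode score of non-aggregating sequences, and sequences under 100 input reads were excluded.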
CSGYDGNSSYNGSNPVSFND displayed an amyloid nucleation score of 0.056 ± 0.77.
The figure for RRTLEAFICL is -0.312 ± 0.84; for IASVQLS it is 1.16 ± 0.53; for ANLDQCYIMEWGSTESSKL it is 0.302 ± 1.
The result for LNATGSLPYDIMECTKELWP reads -0.343 ± 0.7; that for LAVDMQRF, 0.224 ± 1.4.
The figure for YCASFRINVIFV is 3.79 ± 0.086; for QLTGW it is -0.036 ± 0.22; for TVGMRYFVWVKGSKTKREER it is 0.674 ± 1.2.
The substance SGYMWMFMSHRNEFRTEVRW had an amyloid nucleation score of 0.385 ± 0.37.
The result for IAILIYASAFKSSSGCGVKS reads 0.177 ± 0.64; that for CWMTGWTYPVY, 3.85 ± 0.15; that for WRHATSEMCFEGMLKCKVVT, 0.903 ± 0.57.
The result for NHGLYTVFWGCCPWFSQNLF reads 7.894 ± 0.073; that for SCAYQGKLSIAAMLVSGFGC, 1.16 ± 0.97.
The result for VESLDKIPMR reads 0.173 ± 0.73; that for GTIWYITLAGRFNDVIIYTM, 2.4 ± 0.077.
KKVSLRLSSAVILSANSAML: the amyloid nucleation score is -0.258 ± 0.54.
With RCINRGNLAHGGGWCKCKAR, the amyloid nucleation score came out at 0.743 ± 0.54.
The result for GIFKVEHFFKFMYDLIVSKL reads -0.312 ± 0.27.
The result for DIPVSHGAYL reads -0.378 ± 0.84; that for LVTGSCNQWHGKW, -0.062 ± 0.39; that for FFIKE, -0.067 ± 0.48.
The result for FYVSLRWV reads 0.105 ± 0.45.
As to CSLKKSMQNYEFHFWFLFIV, the amyloid nucleation score was -0.757 ± 0.62.
The figure for NIEGRVYRIDSAGGPCIYVL is -0.621 ± 0.5; for SLTVLCKVFFSCNQAGLLHG it is 0.17 ± 0.5; for YFCQWH it is “inactive”.
The result for YERGNFCWTIILRFLEF reads -1.22 ± 0.78; that for KWLLTDDLRSGISAWWECPL, -0.233 ± 0.62.
The figure for LTNATFQLWLLCCDGPLRDM is 5.87 ± 0.062.
Turning to IDSFCKCDISCVIFSWIVVV, the amyloid nucleation score stood at 0.024 ± 0.25.
The figure for AVLNFIQVVVVVEVVGCYQH is 2.68 ± 0.28; for INLMGSPS it is -0.708 ± 0.28.
The result for RLGTSAMRCQP reads 0.038 ± 0.78; that for MSRRWV, -1.01 ± 0.79; that for MFGGGWDAKWPPIPCLKKVD, 0.308 ± 0.43.
The figure for THGPFRCLSNCDVFTPNPEE is 1.03 ± 0.62; for YSNFFQHRTWMIDCSFPTGL it is 0.147 ± 0.37; for YVCFRVDTCRLVCVRRWLNY it is 0.706 ± 0.51.
For DLPWSMLKVL, the amyloid nucleation score came out at 0.689 ± 1.2.
The entry for FVLRLS is “inactive”; for LRSMCSCHVRPIYPFCGHY it is 0.242 ± 0.81; for VFCLRLAYNAFREMSAHKC it is 3.31 ± 0.18.
The result for IWLLGSVHRLDSLVTDCKTS reads 1.08 ± 0.63; that for NMFNDVGDWTFNKGSFTGTV, -0.482 ± 0.41; that for RLRLIFTCMR, 3.08 ± 0.11.
The result for SSSADLAATARLFAGWEVLY reads 0.045 ± 0.74; that for NTKWLMGSLSIIVCMPKSYW, 6.294 ± 0.045.
Turning to CWCQAPVC, the amyloid nucleation score turned out to be 0.124 ± 0.31.
The figure for YSNLYFSLNNGNPVLKGYNG is -0.17 ± 0.65; for LNVYWRPCNN it is 0.717 ± 0.9; for WFSYYLLFRYNDNLSRAERS it is 0.456 ± 0.61.
The result for IGVKVTY reads -0.796 ± 0.53; that for CDLLRSLTVS, 0.946 ± 0.6.
The figure for KVGLSMKYRPYS is 2.29 ± 0.22; for DKAGNGQNGATGWRTMALSG it is 0.777 ± 1.2; for TVSIPKPILFCEFYFRYADM it is -1.67 ± 0.73.
In the case of CVLPSNYDFV, the amyloid nucleation score result is “inactive”.
The result for SWFTVRCDDC reads “inactive”.
GLFVREFPLDMIVVMVRSMC registered an amyloid nucleation score of -0.017 ± 0.97.
The result for SCVLESIQEFWS reads -0.3 ± 0.24.
FKWLTVRGNDRGILDDG yielded an amyloid nucleation score of -0.158 ± 0.52.
The result for YVVCKGIRSSSWDSWVSKR reads -0.393 ± 0.28.
The result for VLMQVSTLAAWDSKRDMTSC reads 0.528 ± 0.35; that for SRNAVVVVVQTYMDMTSCNT, 6.37 ± 0.068; that for KWYGILNVVDDRRSIGRYDM, -0.281 ± 0.58.
The figure for YASVIVTQHRTMICRQTLCR is 1.46 ± 0.51; for YRFRWRNWSMWVSHKAHKAS it is 0.851 ± 0.74.
Consider IVKWLMGMHWLMLAHGV, for which the amyloid nucleation score amounted to 0.181 ± 1.4.
The result for LNNLVFVLLV reads 3.37 ± 0.09; that for VSRWHQCADPPRCGHRCIWA, 0.299 ± 0.51; that for VVVSNTLECSTSRVNRKVRT, -0.97 ± 0.72.
The figure for NGKSAQ is 4.05 ± 0.064.
The result for DSQGFMRVISLMFVDGSLLA reads 0.591 ± 0.54; that for IRCVERGVWSCTFHIQGNCF, -0.84 ± 0.91; that for EDDLN, 0.271 ± 0.38.
The substance TMYVALFLFLA yielded an amyloid nucleation score of 2.54 ± 0.29.
The figure for AMYHLGQSSLLYSRPFNSTK is -0.595 ± 1.6.
The result for SHVVCVCLRDLPRIFVFVEK reads 6.63 ± 0.07; that for DVLLCSIRTSSHDMIIMRKR, 0.553 ± 0.65.
The figure for WFELWKSVRGMENYAYVARC is -0.043 ± 0.29.
With RKVMKTRVSIDHVNFAERRF, the amyloid nucleation score was 1.82 ± 0.29.
The figure for VYHVTWRLPF is 3.4 ± 0.12; for IRHNTRRSSIRTET it is 0.086 ± 0.49.
Consider FFRIEATSVSLSPAYRLEDR, for which the amyloid nucleation score was 2.59 ± 0.28.
The figure for CCADPMHYTFHSSNLVFPLM is 0.294 ± 0.37.
Turning to AYSSARHFFTLTFKEIRFGR, the amyloid nucleation score was found to be 0.141 ± 1.4.
The figure for NFYTFFQTRGFLSLSACALR is -1.12 ± 2.7.
Take HWLFWCQR: the amyloid nucleation score result is “inactive”.
In the case of NYFTVCLKGVRSDPPSVAKG, the amyloid nucleation score is -0.596 ± 0.4.
The result for NSRNVCFWYVNCCLVHGILG reads 7.543 ± 0.067; that for TDDATNVRKGAHS, 0.602 ± 0.6.
DCRQTAKHFPETSDNLYRLT had an amyloid nucleation score of -0.2 ± 0.28.
The result for ENVGRTLAYIWMVWLSSQML reads 1.87 ± 0.67; that for ASMWSWRYHMEAINSTKAEA, -0.745 ± 2.4; that for VILFNSNTEYQKLEQLLELW, 0.153 ± 0.23.
The result for SYQVRDVIKSF reads 4.52 ± 0.1.
The figure for MAFYSTSLSFSEGGIRCSIY is 5.14 ± 0.08.
Turning to YKWGWAVYHIGHGCRVWRWT, the amyloid nucleation score worked out at 1.49 ± 0.4.
The figure for RSGTPQSERDGGGFTEVKKT is -0.205 ± 0.42; for TAFLGTSGG it is 0.448 ± 0.42.
The result for WMKVARMYRMESRIMNRRQW reads 1.13 ± 0.84; that for TFLMCRNACYK, 4.35 ± 0.15; that for LFRYNDWCAYHLPSPWWGNR, 0.112 ± 0.83.
The result for RLFPDAMDSRRYIKWQRVV reads 0.215 ± 0.42; that for KCLIYGKFIVRCVPINV, -0.088 ± 0.59; that for CLTKEYVRGFLNPGRHRTRQ, -0.271 ± 0.36.
With FHRWLDMWSLRRDFIGYGLG, the amyloid nucleation score amounted to 0.095 ± 0.77.
The result for QSFSLS reads 0.609 ± 0.33; that for LLVVRNLEGNNIHALVLCVG, 1.91 ± 0.21.
The figure for FDNVVENHSS is -0.074 ± 0.43; for KGLGGFLSICNSVVVRQVWR it is 0.098 ± 0.72.
TTDPVWFSAI came in with an amyloid nucleation score of 0.346 ± 0.4.
Consider RFVQRKDSFFARI, for which the amyloid nucleation score was 1.21 ± 0.66.
As to SGMHHHDKARNRG, the amyloid nucleation score came out at 1.26 ± 0.59.
The result for PCIVKYRNSGLHNYRIRLNR reads -1.12 ± 0.97.
The result for VQKKRLDGLVKRGLYIRAIG reads 1.2 ± 0.69; that for TIVYATGMNMYTDAC, -0.203 ± 0.34; that for IIGLVWSVL, 0.993 ± 0.58.
In turn, YFSLSVIREVCFFVPWKLRS showed an amyloid nucleation score of 0.14 ± 0.43.
The result for CWGWMARLAINLAGTGSNQK reads 0.119 ± 0.71; that for SWSEVGWTHCMSWASHI, -1.14 ± 2.4.
Take YVFVWMRYTSFWVMNTFYSS: the amyloid nucleation score was 0.193 ± 0.46.
IKYLSYDVNPPLWFVYNFSF: the amyloid nucleation score was 6.29 ± 0.084.
As for RCKGNGKNISCSPFQSREWY, the amyloid nucleation score is 0.026 ± 0.33.
The figure for VRCNC is 0.261 ± 0.5; for TFAVLRNSGFM it is 0.529 ± 0.84.
The figure for VGNNKLFKTPMKDRELMICL is -0.184 ± 0.48; for DNSPSSWFDWDLGEIGVRVE it is -0.469 ± 1; for GSTENTVYRRGEFGELVWKC it is -0.311 ± 0.44.
The figure for HVYCLRWRYC is -0.318 ± 0.35; for DGRFLCFHIGSLMSGWDGRQ it is -0.783 ± 0.75.
IWWFSTFVRRRRAAVKVHKA: the amyloid nucleation score result was “inactive”.
The result for RRGSCLRFKV reads 0.859 ± 0.97.
CISLFFVKCGRQAAHPQSRR registered an amyloid nucleation score of 8.295 ± 0.062.
The figure for PSCILMNLEVYND is 0.827 ± 0.42; for PGLFYETDHVASVVVCKSPH it is -0.231 ± 0.45.
The substance IDSGRAKRLSHMIWISVRHG gave an amyloid nucleation score of -1.93 ± 2.7.
The result for PGFPNLVTSRTLIVCQL reads “inactive”.
The result for IYRSVANSMKVSEYQIPLDS reads -0.18 ± 0.54.
